In paper PMC6863750 (Nature cell biology, 2018):

Key:
[1] = molecular target: purified recombinant Rac1 Q61L (analyte in SPR) (UniProt P63000 1-192, Q61L); test: SPR
[2] = molecular target: His-Rac1 Q61L (immobilised in SPR) (UniProt P63000 1-192, Q61L); test: SPR

B1: GST-CYRI-B RBD (domain or fragment)
chain: ESEKEIYNQVNVVLKDAEGILEDLQSYRGAGHEIREAIQHPADEKLQEKAWGAVVPLVGKLKKFYEFSQRLEAALRGLLGALTSTPYSPTQHLEREQALAKQFAEILHFTLRFDELKMTNPAIQNDFSYYRRTLSRMRINNVPAEGENEVNNELANRMSLFYAEATPMLKTLSDATTKFVSENKNLPIENTTDCLSTMASVCRVMLE
Kd [1]: 27 µM

B2: CYRI-B RBD (analyte in SPR) (domain or fragment)
chain: ESEKEIYNQVNVVLKDAEGILEDLQSYRGAGHEIREAIQHPADEKLQEKAWGAVVPLVGKLKKFYEFSQRLEAALRGLLGALTSTPYSPTQHLEREQALAKQFAEILHFTLRFDELKMTNPAIQNDFSYYRRTLSRMRINNVPAEGENEVNNELANRMSLFYAEATPMLKTLSDATTKFVSENKNLPIENTTDCLSTMASVCRVMLE
Kd [2]: 22 µM
